This assay concerns the target T1, SARS-CoV-2 WHU01 Spike RBD, monomeric (SARS-CoV-2, UniProt P0DTC2).
T1 construct: not shown: Fc (human IgG1), C-terminal, cleaved
As to the kind of experiment: SPR. The note with it: both partners purified.

B1: Cattle ACE2-huFc (soluble cattle ACE2 ectodomain, human IgG1 Fc fusion) (Fc fusion)
chain: QSTTEEQAKTFLEKFNHEAEDLSYQSSLASWNYNTNITDENVQKMNEARAKWSAFYEEQSRMAKTYSLEEIQNLTLKRQLKALQHSGTSALSAEKSKRLNTILNKMSTIYSTGKVLDPNTQECLALEPGLDDIMENSRDYNRRLWAWEGWRAEVGKQLRPLYEEYVVLENEMARANNYEDYGDYWRGDYEVTGAGDYDYSRDQLMKDVERTFAEIKPLYEQLHAYVRAKLMHTYPSYISPTGCLPAHLLGDMWGRFWTNLYSLTVPFEHKPSIDVTEKMENQSWDAERIFKEAEKFFVSISLPYMTQGFWDNSMLTEPGDGRKVVCHPTAWDLGKGDFRIKMCTKVTMDDFLTAHHEMGHIQYDMAYAAQPYLLRNGANEGFHEAVGEIMSLSAATPHYLKALGLLAPDFHEDNETEINFLLKQALTIVGTLPFTYMLEKWRWMVFKGEIPKQQWMEKWWEMKREIVGVVEPLPHDETYCDPACLFHVAEDYSFIRYYTRTIYQFQFHEALCKTAKHEGALFKCDISNSTEAGQRLLQMLRLGKSEPWTLALENIVGIKTMDVKPLLNYFEPLFTWLKEQNRNSFVGWSTEWTPYSDQSIKVRISLKSALGENAYEWNDNEMYLFQSSVAYAMRKYFSEARNETVLFGEDNVWVSDKKPRISFKFFVTSPNNVSDIIPRTEVENAIRLSRDRINDVFQLDDNSLEFLGIQPTLGPPYEPPVTI
On to B1, for which the Kd (in general, the equilibrium constant for the complex coming apart) was found to be 700 nM; the koff (in general, a measure of how fast the partners let go of each other) was determined as 0.066 s⁻¹; the kon (as a rule, the second-order rate constant of association) was found to be 94000 M⁻¹ s⁻¹.

The values are drawn from publication PMC10715038 (Microbiology Spectrum, 2023).
